Source: IntAct's records for PubMed 36435842

B1: Golgi phosphoprotein 3 homolog sauron (Drosophila melanogaster (Fruit fly)), Q9VQ93 (parent)
chain: MNRSDGLVRRSVKPRENGGAEGGLNANTPDDNQDALDNLKDQEDNIDDGDSKETRLTLMEEVLLLGLKDKEGYTSFWNDCISSGLRGCILIELGLRGRVMIEKSGMRRRGLCTRKLILKSDQQTGDVLLDEALKHIKETDPPETVQSWIEYLSGETWNPLKLRYQLKNVRERLAKNLVEKGVLTTEKQNFLLFDMTTHPLSDNVVKCRLVKKIQDSVLSKWVNDPQRMDKRMLALIFLAHASDVIENAFAPLNDDDYEVAMKRVRELLDLDFEAESAKPNANEILWAVFMAFTK
partner: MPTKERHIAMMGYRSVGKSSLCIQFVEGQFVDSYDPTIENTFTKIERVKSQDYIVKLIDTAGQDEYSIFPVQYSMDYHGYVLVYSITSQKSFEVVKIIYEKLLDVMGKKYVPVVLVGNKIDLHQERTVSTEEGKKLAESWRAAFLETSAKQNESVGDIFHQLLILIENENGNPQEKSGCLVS

Variants of: B1
Details: with rheb_drome Rheb

**Q.** Which “effect of a mutation on the interaction” value does the source give for K167A;R170L here?
**A.** The value was “disrupting interaction strength”.
